Assay results: IntAct's records for PubMed 38057552

B1: Sodium/glucose cotransporter 2 (Homo sapiens), P31639 (parent)
chain: MEEHTEAGSAPEMGAQKALIDNPADILVIAAYFLLVIGVGLWSMCRTNRGTVGGYFLAGRSMVWWPVGASLFASNIGSGHFVGLAGTGAASGLAVAGFEWNALFVVLLLGWLFAPVYLTAGVITMPQYLRKRFGGRRIRLYLSVLSLFLYIFTKISVDMFSGAVFIQQALGWNIYASVIALLGITMIYTVTGGLAALMYTDTVQTFVILGGACILMGYAFHEVGGYSGLFDKYLGAATSLTVSEDPAVGNISSFCYRPRPDSYHLLRHPVTGDLPWPALLLGLTIVSGWYWCSDQVIVQRCLAGKSLTHIKAGCILCGYLKLTPMFLMVMPGMISRILYPDEVACVVPEVCRRVCGTEVGCSNIAYPRLVVKLMPNGLRGLMLAVMLAALMSSLASIFNSSSTLFTMDIYTRLRPRAGDRELLLVGRLWVVFIVVVSVAWLPVVQAAQGGQLFDYIQAVSSYLAPPVSAVFVLALFVPRVNEQGAFWGLIGGLLMGLARLIPEFSFGSGSCVQPSACPAFLCGVHYLYFAIVLFFCSGLLTLTVSLCTAPIPRKHLHRLVFSLRHSKEEREDLDADEQQGSSLPVQNGCPESAMEMNEPQAPAPSLFRQCLLWFCGMSRGGVGSPPPLTQEEAAAAARRLEDISEDPSWARVVNLNALLMMAVAVFLWGFYA
partner: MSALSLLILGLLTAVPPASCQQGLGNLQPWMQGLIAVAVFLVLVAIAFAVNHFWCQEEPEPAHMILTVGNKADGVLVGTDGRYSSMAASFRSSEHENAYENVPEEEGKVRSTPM

Variants of: B1
Settings: with pdz1i_human PDZK1IP1, Q13113

effect of a mutation on the interaction | Variant
with no effect | D201A
with no effect | F98A
with no effect | S74A
